The labels stand for the following.
B1: 10-MP05F03 VHH-hFc, monospecific monovalent (Fc fusion)
VHH: QVQLVESGGGLVQAGGSLRLSCAASGIPFDNYAMGWFRQAPGKEREFVAARDLEGIITRYGDSVKGRFTISRGNAKNTVFLQMNSLKPEDTAVYYCAARDGGVVAGSRSSAQYNYWGQGTQVTVSS
B2: 7-MP01G08 VHH-hFc, monospecific monovalent (Fc fusion)
VHH: EVQLVESGGGLVQAGGSLRLSCAASGRAFSMYNMGWFRQAPGKEREFVAATGWSGANTPYADSVKGRFTISRDNTQNTVYLQMNSLKPEDTATYYCAADSIRLRSDVTRIPLEYDYWGQGTQVTVSS
B3: 11-MP05H04 VHH-hFc, monospecific monovalent (Fc fusion)
VHH: QLQLVESGGGLVQAGGSLRLSCAASGLTFEGYAIGWFRQAPGKEREGVSYITGSDGTTYYINSVKGRFTISSDNAKSTVYLQMNTLKPEDTAVYYCAVDRLGSQGRYASAWWRSGDMDLWGKGTQVTVSS
B4: 13-MP05E12 (antibody, V domains shown)
VH: QVQLQESGGGLVQAGDSLRLSCAASGFNFGWHAMGWFRQAPGKEREFVATITWTGRDTYYADSVRGRFTISKDNAKDTLFLQMNSLRPDDTGVYYCAKARERATWAYSEDDCDYWGQGTQVTVSS
B5: 6-MP01G05 VHH-hFc, monospecific monovalent (Fc fusion)
VHH: QVQLQESGGGLVQAGGSLRLSCAASGRTFSSYAMGWFRQAPGKEREFVAVISWNVDNTEYTDSVKGRFTISRDNDKNMVYLQMNSLKPEDTAVYYCAADSIPLSSDMSPTATEYGYWGQGTQVTVSS
B6: 5-MP01F05 VHH-hFc, monospecific monovalent (Fc fusion)
VHH: EVQLVESGGGLVQAGGSLRLSCAASIRAFTTWSMAWFRQAPGKEREYVARINVSGSVTYYADFVKGRFTISRDNAKKTMYLEMNNLKPEDTALYYCAADRTGVGTNDYNYWGQGTQVTVSS
B7: 9-MP05G01 VHH-hFc, monospecific monovalent (Fc fusion)
VHH: EVQLVESGGGLVQAGGSLRLSCAASGGSIYTYNMGWFRQAPGKEREFVAGTLWSGGDSVYADFAKGRFTLSRENAKNTLYLQMNSLKPEDTATYYCAIDPLSLTSDWRVDELSSWGKGTLVTVSS
B8: 1-MP01H01 VHH-hFc, monospecific monovalent (Fc fusion)
VHH: EVQLVESGGGLVQAGGSLRLSCAASGRTFRTHNMGWFRRAPGKEREFVAAISWNVDNTLYADSVKGRFTISRDNGRNMVYLQMNSLKPEDTAVYYCAADNIPLSSDVAATATEYDYWGQGTQVTVSS
B9: 4-MP01F04 VHH-hFc, monospecific monovalent (Fc fusion)
VHH: QVQLVESGGGLVQAGGSLRLSCAASGGTFRTRNMGWFRRAPGKEREFVAAVSWNVDNKLYADSVKGRFTISRDNGRNMVYLQMNSLKPEDTAVYYCAADNIPLSSDMRPTATEYDYWGQGTQVTVSS
B10: 3-MP01E03 VHH-hFc, monospecific monovalent (Fc fusion)
VHH: QVQLVESGGGLVQAGGSLRLSCTASGRTLSSYSMAWFRQAADKGREFVTAISSSGVVTHVLDSVKGRFTISRDNAKNTVYLQMNSLQPEDTALYFCAGTASSYSTYEANYNYWGQGTLVTVSS
B11: 8-MP01C12 VHH-hFc, monospecific monovalent (Fc fusion)
VHH: QVQLVESGGGLVQPGGSLRLSCATSGFTFSNNFMSWVRQAPGKGLEFVSTISYGGESTTYAEAVKGRFTISRDNAKNTLYLQMNNLKPEDTAIYYCAKATSYTSIRGAPRGQGTQVTVSS
B12: BsVHH-15 (36x19) (antibody)
chain: QVQLVESGGGLVQAGGSLRLSCAASGRTLSRYAMGWFRQAPGSEREFVAASSWGGDTFYADSVEGRFTFSRDNAKNAVYLQMNSLQPEDTAAYYCAAAPTSFPTTAYSSSNSYAYWGQGTQVTVSSGGGGSGGGGSGGGGSGSEVQLVESGGGLVQTGGSLRLSCAASGGTFSRDAMAWFRQVPGKEREFVALISWSGATTNYADSVKGRFAISRDNGKNTVYLQMNRLKPADTAIYYCAADRRPMGSRSYFEPTEYDDWGQGTQVTVSSGGGGSGGGGSGGGGSTVSSDKTHTCPPCPAPEAAGGPSVFLFPPKPKDTLMISRTPEVTCVVVDVSHEDPEVKFNWYVDGVEVHNAKTKPREEQYNSTYRVVSVLTVLHQDWLNGKEYKCKVSNKALGAPIEKTISKAKGQPREPQVYTLPPSRDELTKNQVSLTCLVKGFYPSDIAVEWESNGQPENNYKTTPPVLDSDGSFLLYSKLTVDKSRWQQGNVFSCSVMHEALHNHYTQKSLSLSPGK
B13: BsVHH-20 (36x22) (antibody)
chain: QVQLVESGGGLVQAGGSLRLSCAASGRTLSRYAMGWFRQAPGSEREFVAASSWGGDTFYADSVEGRFTFSRDNAKNAVYLQMNSLQPEDTAAYYCAAAPTSFPTTAYSSSNSYAYWGQGTQVTVSSGGGGSGGGGSGGGGSGSEVQLVESGGGLVQAGGSLRLSCAASGSIFSINAMAWFRQVPGMERELVAAISRDGGASVYRDSVKGRFTISRDNSKNTVYLQMNTLKPEDTAIYVCAATRAIGWTARWITTDFDFWGQGTQVTVSSGGGGSGGGGSGGGGSTVSSDKTHTCPPCPAPEAAGGPSVFLFPPKPKDTLMISRTPEVTCVVVDVSHEDPEVKFNWYVDGVEVHNAKTKPREEQYNSTYRVVSVLTVLHQDWLNGKEYKCKVSNKALGAPIEKTISKAKGQPREPQVYTLPPSRDELTKNQVSLTCLVKGFYPSDIAVEWESNGQPENNYKTTPPVLDSDGSFLLYSKLTVDKSRWQQGNVFSCSVMHEALHNHYTQKSLSLSPGK
B14: BsVHH-7 (31x18) (antibody)
chain: QVQLVESGGGLVQAGGSLRLSCTGYGGAFTGYALGWFRQAPGKEREFVARINWSGSFTYYASSVKGRFTISRDNAKNTMYLQMNNLKPEDTAVYYCAADNPSTLATDYDNWGQGTQVTVSSGGGGSGGGGSGGGGSGSQVQLVESGGGLVQPGGSLRLSCAISGGTLDSYGIGWVRQAPGKQREGVSCMSRSDDRTYYADSVKGRFTISKDSAKNTVYLQMTSLKPEDTAVYYCAAVDAYGCSLVQPTTYDFWGLGTQVTVSSGGGGSGGGGSGGGGSTVSSDKTHTCPPCPAPEAAGGPSVFLFPPKPKDTLMISRTPEVTCVVVDVSHEDPEVKFNWYVDGVEVHNAKTKPREEQYNSTYRVVSVLTVLHQDWLNGKEYKCKVSNKALGAPIEKTISKAKGQPREPQVYTLPPSRDELTKNQVSLTCLVKGFYPSDIAVEWESNGQPENNYKTTPPVLDSDGSFLLYSKLTVDKSRWQQGNVFSCSVMHEALHNHYTQKSLSLSPGK
B15: BsVHH-8 (32x18) (antibody)
chain: QVQLVESGGGLVQAGGSLRLSCAASGRTFGSTAVGWFRQVPGKEREFVSAINRSGSATTYADSVKGRFTISRDNAKNTVYLQMNSLTPEDTGVYYCAADSLPYGRPYYFQRSAGEYDYWGQGTQVTVSSGGGGSGGGGSGGGGSGSQVQLVESGGGLVQPGGSLRLSCAISGGTLDSYGIGWVRQAPGKQREGVSCMSRSDDRTYYADSVKGRFTISKDSAKNTVYLQMTSLKPEDTAVYYCAAVDAYGCSLVQPTTYDFWGLGTQVTVSSGGGGSGGGGSGGGGSTVSSDKTHTCPPCPAPEAAGGPSVFLFPPKPKDTLMISRTPEVTCVVVDVSHEDPEVKFNWYVDGVEVHNAKTKPREEQYNSTYRVVSVLTVLHQDWLNGKEYKCKVSNKALGAPIEKTISKAKGQPREPQVYTLPPSRDELTKNQVSLTCLVKGFYPSDIAVEWESNGQPENNYKTTPPVLDSDGSFLLYSKLTVDKSRWQQGNVFSCSVMHEALHNHYTQKSLSLSPGK
B16: BsVHH-9 (35x18) (antibody)
chain: QVQLQESGGGLVQGGGSLRLSCAASGGIFSSYAMGWFRQAPGKEREFVAAISRSGRSTNYADSVKGRFTISRDNAKSTVYLQMNSLKPEETAVYYCAAGRYYNSAYDPSPGDFGSWGHGTQVTVSSGGGGSGGGGSGGGGSGSQVQLVESGGGLVQPGGSLRLSCAISGGTLDSYGIGWVRQAPGKQREGVSCMSRSDDRTYYADSVKGRFTISKDSAKNTVYLQMTSLKPEDTAVYYCAAVDAYGCSLVQPTTYDFWGLGTQVTVSSGGGGSGGGGSGGGGSTVSSDKTHTCPPCPAPEAAGGPSVFLFPPKPKDTLMISRTPEVTCVVVDVSHEDPEVKFNWYVDGVEVHNAKTKPREEQYNSTYRVVSVLTVLHQDWLNGKEYKCKVSNKALGAPIEKTISKAKGQPREPQVYTLPPSRDELTKNQVSLTCLVKGFYPSDIAVEWESNGQPENNYKTTPPVLDSDGSFLLYSKLTVDKSRWQQGNVFSCSVMHEALHNHYTQKSLSLSPGK

The target of one assay is T1, human IL-2 receptor IL-2Rα/IL-2Rβ/γc on HEK-Blue IL-2 cells (UniProt P01589 22-272; P14784 27-551; P31785 23-369).
T1 chain 1: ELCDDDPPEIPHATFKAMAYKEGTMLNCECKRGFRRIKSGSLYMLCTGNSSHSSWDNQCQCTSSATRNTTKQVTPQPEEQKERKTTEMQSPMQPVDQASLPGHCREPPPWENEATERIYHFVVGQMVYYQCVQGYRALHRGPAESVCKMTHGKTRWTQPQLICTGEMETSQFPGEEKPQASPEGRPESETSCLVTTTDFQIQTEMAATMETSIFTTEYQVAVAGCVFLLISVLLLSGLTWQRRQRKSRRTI
T1 chain 2: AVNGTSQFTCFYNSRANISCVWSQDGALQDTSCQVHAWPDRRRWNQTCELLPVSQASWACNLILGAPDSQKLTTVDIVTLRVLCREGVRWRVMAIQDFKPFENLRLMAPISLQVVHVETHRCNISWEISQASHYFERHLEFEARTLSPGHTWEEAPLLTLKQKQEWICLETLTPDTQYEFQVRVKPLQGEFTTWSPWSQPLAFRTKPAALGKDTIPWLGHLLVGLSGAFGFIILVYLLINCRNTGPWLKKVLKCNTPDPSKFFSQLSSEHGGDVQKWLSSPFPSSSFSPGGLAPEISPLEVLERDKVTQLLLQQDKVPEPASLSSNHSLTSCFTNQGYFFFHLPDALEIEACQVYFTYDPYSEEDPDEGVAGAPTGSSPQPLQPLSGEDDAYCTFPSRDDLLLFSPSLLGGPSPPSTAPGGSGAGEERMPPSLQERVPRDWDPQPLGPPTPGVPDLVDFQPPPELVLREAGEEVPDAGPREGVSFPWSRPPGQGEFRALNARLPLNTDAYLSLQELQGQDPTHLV
T1 chain 3: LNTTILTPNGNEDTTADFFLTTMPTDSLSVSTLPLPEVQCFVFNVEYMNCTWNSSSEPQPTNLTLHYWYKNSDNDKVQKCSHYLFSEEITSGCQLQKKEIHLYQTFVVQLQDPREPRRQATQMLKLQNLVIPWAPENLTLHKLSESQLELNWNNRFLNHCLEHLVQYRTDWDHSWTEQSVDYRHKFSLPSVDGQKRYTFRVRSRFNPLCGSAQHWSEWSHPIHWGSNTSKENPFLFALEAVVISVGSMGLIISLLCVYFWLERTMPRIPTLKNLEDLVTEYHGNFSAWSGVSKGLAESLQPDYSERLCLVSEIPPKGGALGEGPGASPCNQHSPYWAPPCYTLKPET
Kind of assay: FACS cell binding; monovalent.
Take B1: the EC50 was 2 nM. In other words, the single-digit nanomolar range.

As for B2, the EC50 stood at 4.7 nM.

In turn, B3 registered an EC50 of 5.9 nM. This EC50 and that of the molecule before are within 1.5-fold of each other.

In turn, B4 returned an EC50 of 3.2 nM.

As to B5, the EC50 stood at 5.6 nM.

In the case of B6, the EC50 is 9.2 nM.

Take B7: the EC50 turned out to be 2.3 nM.

Molecule B8 yielded an EC50 of 135 nM.

The molecule B9 showed an EC50 of 2.2 nM.

As to B10, a half-maximal effect (EC50) was put at 3.3 nM.

In turn, B11 came in with an EC50 of 2.7 nM.

The target of the next assay is T1, human IL-2 receptor IL-2Rα/IL-2Rβ/γc on …. The assay is described as follows: FACS cell binding; avid.
Turning to B12, the EC50 was 88.3 nM. This lies in the double-digit nanomolar range.

Regarding B13, a half-maximal effect (EC50) was put at 3.4 nM.

For B14, the response was half-maximal at 23.5 nM (EC50).

On to B15, for which a half-maximal effect (EC50) was put at 1.9 nM. This EC50 lies about 12-fold lower than the previous one.

As to B16, the EC50 was 1.3 nM.

By EC50 is commonly meant the concentration at which the effect is half-maximal. Read a low EC50 as an effect from little substance.

The record behind these values is US20240409645A1 (published 2024).
